According to patent publication US20240261333A1 (published 2024):

Tests used:
Assay in all cases: co-IP with anti-FLAG, mass spectrometry; N-FLAG B3GNT2
RPS17 = RPS17 (UniProt P08708 2-135)
Method: (§1) Cells were plated in 10-cm cell culture dishes and grown to 60-80% confluency. For each condition, two biological replicates were harvested for co-IP. Cells were washed with PBS and 4 mL of lysis buffer (20 mM HEPES, 1% Triton X-100, 150 mM NaCl, 1 mM EDTA, and 10% glycerol) containing protease inhibitor cocktail was added. Cells were scraped and lysate was incubated at 4° C. under rotary agitation for 1 h. Lysate was centrifuged at 14,000×g for 10 min at 4° C. Supernatant was transferred to a new tube and an aliquot was taken as the input. […] For Western blots, 10 μg/mL Chicken Anti-FLAG (Aves labs ET-DY100) and IgY control (R&D Systems AB-101-C) antibodies were biotinylated (Thermo Fisher Scientific 90407) and added to the respective conditions. Lysates with antibodies were incubated at 4° C. under rotary agitation overnight. For each mL of lysate, 50 μL of Pierce Protein A/G Magnetic Beads (Mass spectrometry; Thermo Fisher Scientific 88803) or Pierce Streptavidin Magnetic Beads (Western blot; Thermo Fisher Scientific 88817) was washed twice with lysis buffer. Lysates with antibodies were added to the beads and incubated at 4° C. under rotary agitation for 4 h. Beads were washed with lysis buffer 3 times and resuspended in lysis buffer for storage.
(§2) Magnetic beads were resuspended in 100 mM Tris pH 7.8, reduced, alkylated and digested with trypsin at 37° ° C. overnight. This solution was subjected to solid phase extraction to concentrate the peptides and remove unwanted reagents followed by injection onto a Shimadzu HPLC with fraction collector. Eight fractions were collected and after concentration were injected on a Waters NanoAcquity HPLC equipped with a self-packed Aeris 3 μm C18 analytical column 0.075 mm by 20 cm, (Phenomenex). Peptides were eluted using standard reverse-phase gradients. The effluent from the column was analyzed using a Thermo Orbitrap Elite mass spectrometer (nanospray configuration) operated in a data dependent manner for 54 minutes. The resulting fragmentation spectra were correlated against the known database using Proteome Discover 1.4 (Thermo Fisher Scientific).

ATXN2L = target: T1, ATXN2L (UniProt Q8WWM7 1-1075)
T1 construct: Endogenous protein found in the co-IP by mass spectrometry; also called NP_009176.2
T1 sequence (looked up): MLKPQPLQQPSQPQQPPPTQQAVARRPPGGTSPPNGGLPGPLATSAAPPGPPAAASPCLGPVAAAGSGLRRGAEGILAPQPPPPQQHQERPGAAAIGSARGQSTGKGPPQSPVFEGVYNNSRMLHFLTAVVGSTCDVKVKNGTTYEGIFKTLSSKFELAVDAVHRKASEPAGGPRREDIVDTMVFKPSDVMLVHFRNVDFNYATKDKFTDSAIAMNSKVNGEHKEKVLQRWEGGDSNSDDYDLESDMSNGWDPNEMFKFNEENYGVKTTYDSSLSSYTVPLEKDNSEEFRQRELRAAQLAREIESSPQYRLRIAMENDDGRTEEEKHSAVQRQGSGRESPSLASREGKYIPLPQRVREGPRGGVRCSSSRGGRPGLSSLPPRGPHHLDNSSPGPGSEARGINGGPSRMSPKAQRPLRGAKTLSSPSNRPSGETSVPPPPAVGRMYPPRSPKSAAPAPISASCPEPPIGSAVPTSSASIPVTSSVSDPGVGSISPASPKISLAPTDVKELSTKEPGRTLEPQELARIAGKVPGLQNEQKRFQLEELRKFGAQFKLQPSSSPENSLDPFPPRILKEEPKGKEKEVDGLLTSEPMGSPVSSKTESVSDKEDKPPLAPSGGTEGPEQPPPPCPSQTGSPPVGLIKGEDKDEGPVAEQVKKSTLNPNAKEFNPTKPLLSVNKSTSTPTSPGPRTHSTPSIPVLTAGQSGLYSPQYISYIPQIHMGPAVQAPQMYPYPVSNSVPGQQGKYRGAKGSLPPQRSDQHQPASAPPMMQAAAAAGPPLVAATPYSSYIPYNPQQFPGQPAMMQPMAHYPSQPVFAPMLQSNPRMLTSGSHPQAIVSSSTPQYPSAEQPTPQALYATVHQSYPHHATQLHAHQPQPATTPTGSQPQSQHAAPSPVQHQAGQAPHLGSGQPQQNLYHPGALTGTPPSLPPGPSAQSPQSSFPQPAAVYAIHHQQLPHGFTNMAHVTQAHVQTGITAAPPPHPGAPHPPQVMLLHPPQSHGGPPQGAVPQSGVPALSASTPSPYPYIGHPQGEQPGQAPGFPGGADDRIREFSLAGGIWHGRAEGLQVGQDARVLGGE
Method: as §1, §2

RPL10A = RPL10A (UniProt P62906 2-217)
Method: as §1, §2

RPN1 = target: T2, RPN1 (UniProt P04843 24-607)
T2 construct: Endogenous protein found in the co-IP by mass spectrometry; also called NP_002941.1
T2 sequence (looked up): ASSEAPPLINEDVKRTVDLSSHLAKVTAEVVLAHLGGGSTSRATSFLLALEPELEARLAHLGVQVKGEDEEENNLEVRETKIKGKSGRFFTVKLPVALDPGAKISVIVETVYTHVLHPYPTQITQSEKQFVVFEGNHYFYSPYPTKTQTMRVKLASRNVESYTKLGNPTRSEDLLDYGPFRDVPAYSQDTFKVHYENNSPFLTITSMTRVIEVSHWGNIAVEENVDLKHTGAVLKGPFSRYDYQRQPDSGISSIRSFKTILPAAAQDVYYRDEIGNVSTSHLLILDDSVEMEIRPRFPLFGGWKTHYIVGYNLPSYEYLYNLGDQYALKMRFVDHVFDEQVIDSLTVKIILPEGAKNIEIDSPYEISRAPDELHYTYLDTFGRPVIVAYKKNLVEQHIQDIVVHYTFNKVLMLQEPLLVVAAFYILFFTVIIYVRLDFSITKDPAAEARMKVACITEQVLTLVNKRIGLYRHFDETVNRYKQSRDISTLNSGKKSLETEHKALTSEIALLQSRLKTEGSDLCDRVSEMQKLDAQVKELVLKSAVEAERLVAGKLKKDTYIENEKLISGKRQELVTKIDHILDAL
Method: as §1, §2

HNRNPA1 = target: T3, HNRNPA1 (UniProt P09651 2-372)
T3 construct: Endogenous protein found in the co-IP by mass spectrometry; also called NP_112420.1
T3 sequence (P09651 2-372 limits assumed): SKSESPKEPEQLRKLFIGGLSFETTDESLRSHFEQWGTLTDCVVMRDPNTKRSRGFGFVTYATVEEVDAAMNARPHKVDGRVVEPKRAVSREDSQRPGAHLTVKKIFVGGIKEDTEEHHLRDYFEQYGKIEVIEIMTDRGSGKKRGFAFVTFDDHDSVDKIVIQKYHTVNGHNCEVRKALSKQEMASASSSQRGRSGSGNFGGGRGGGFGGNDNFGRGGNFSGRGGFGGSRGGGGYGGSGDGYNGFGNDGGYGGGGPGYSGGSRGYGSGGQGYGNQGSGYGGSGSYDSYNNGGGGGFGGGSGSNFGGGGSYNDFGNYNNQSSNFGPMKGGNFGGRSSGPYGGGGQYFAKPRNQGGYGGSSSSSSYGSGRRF
Method: as §1, §2

LTF = target: T4, LTF (UniProt P02788 20-710, limits assumed)
T4 construct: Protein found in the co-IP by mass spectrometry; also called NP_001308051.1
T4 sequence (P02788 20-710 limits assumed): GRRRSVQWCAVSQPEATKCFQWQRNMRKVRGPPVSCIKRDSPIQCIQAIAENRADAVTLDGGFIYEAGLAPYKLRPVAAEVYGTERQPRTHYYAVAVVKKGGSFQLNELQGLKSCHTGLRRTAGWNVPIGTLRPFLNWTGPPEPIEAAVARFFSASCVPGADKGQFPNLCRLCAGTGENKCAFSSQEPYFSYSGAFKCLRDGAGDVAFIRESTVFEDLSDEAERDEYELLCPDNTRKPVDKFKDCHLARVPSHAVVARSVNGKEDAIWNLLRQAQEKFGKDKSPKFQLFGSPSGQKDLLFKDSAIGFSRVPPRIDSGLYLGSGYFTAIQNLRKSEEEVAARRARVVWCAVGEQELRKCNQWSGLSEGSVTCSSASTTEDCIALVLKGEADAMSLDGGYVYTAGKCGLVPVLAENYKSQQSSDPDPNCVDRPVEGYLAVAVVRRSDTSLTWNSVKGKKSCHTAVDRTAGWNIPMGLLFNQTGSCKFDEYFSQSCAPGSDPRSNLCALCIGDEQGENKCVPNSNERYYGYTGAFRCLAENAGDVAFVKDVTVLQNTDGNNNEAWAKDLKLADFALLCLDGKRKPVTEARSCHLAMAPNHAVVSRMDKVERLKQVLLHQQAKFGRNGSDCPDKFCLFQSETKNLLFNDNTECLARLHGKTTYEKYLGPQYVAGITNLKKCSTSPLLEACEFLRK
Method: as §1, §2

B1: N-terminal FLAG tagged B3GNT2 (enzyme, human, UniProt Q9NY97 1-397, looked up)
chain: MSVGRRRIKLLGILMMANVFIYFIMEVSKSSSQEKNGKGEVIIPKEKFWKISTPPEAYWNREQEKLNRQYNPILSMLTNQTGEAGRLSNISHLNYCEPDLRVTSVVTGFNNLPDRFKDFLLYLRCRNYSLLIDQPDKCAKKPFLLLAIKSLTPHFARRQAIRESWGQESNAGNQTVVRVFLLGQTPPEDNHPDLSDMLKFESEKHQDILMWNYRDTFFNLSLKEVLFLRWVSTSCPDTEFVFKGDDDVFVNTHHILNYLNSLSKTKAKDLFIGDVIHNAGPHRDKKLKYYIPEVVYSGLYPPYAGGGGFLYSGHLALRLYHITDQVHLYPIDDVYTGMCLQKLGLVPEKHKGFRTFDIEEKNKNNICSYVDLMLVHSRKPQEMIDIWSQLQSAHLKC
notes: FLAG-tagged ORF overexpressed in cells; bait of the anti-FLAG co-IP; also called N-FLAG B3GNT2; N-term FLAG; not shown: FLAG tag at the N-terminus
- co-IP mass spectrometry count (RPS17): 5
- co-IP mass spectrometry count (ATXN2L): 5
- co-IP mass spectrometry count (RPL10A): 6
- co-IP mass spectrometry count (RPN1): 0
- co-IP mass spectrometry count (HNRNPA1): 7
- co-IP mass spectrometry count (LTF): 8
